Measurements as given in PMC10248533 (The Journal of Biological Chemistry, 2023).

Biological target: the molecule itself
Test: native MS; 50 μM protein exchanged into 200 mM ammonium acetate pH 7.4; nano electrospray, Q Exactive UHMR

B1: AtGet3dΔ1–57 from His8-SUMO-GSx2-AtGet3dΔ1–57 (native mass spectrometry sample) (natural protein, Arabidopsis thaliana, UniProt Q6DYE4 58-455, looked up)
chain: TKFVTFLGKGGSGKTTAAVFAAQHYALAGLSTCLVIHNQDPSAEFLLGSKIGTSPTLINDNLSVIRLETTKMLLEPLKQLKQADARLNMTQGVLEGVVGEELGVLPGMDSIFSMLELERLVGFFRQATRKNHKGKPFDVIIYDGISTEETLRMIGLSSKTRLYAKYLRSLAEKTDLGRLTSPSIMRFVDESMNINSNKSPFDGMTSPAMWDTLERFLETGASAWRDPERFRSFLVMDPNNPMSVKAALRYWGCTVQAGSHVSGAFAISSSHLTSQIPKADFVPLPFASASVPFTITGLDWDKILLDQANSSIRELLSETVSHGTSLTQTVMFDTAKKLVTLFMPGFEKSEIKLYQYRGGSELLIEAGDQRRVIHLPSQIQGKVGGAKFVDRSLIVTMR
notes: Get3d, Arabidopsis thaliana, UniProt Q6DYE4, without the first 57 amino acids (chloroplast transit peptide); Dialysed with Ulp1 after Ni-NTA; the GSx2 linker between SUMO and AtGet3d probably stays on the N-terminus after cleavage (surmised); Copurifies with small molecules of about 750 Da; source: E. coli NiCo21(DE3), purified (Ni-NTA, Ulp1 digestion, Superdex 200 SEC); not shown: His8, …
In the case of B1, the “stoichiometry N” value is reported as 2.
